Laboratory results from PMC6083883 (Molecular cell, 2018).

Target: recombinant biotin-FLAG-tagged human ATM (human, UniProt Q13315 1-3056, biotin)
Test: pull-down

Sequence of recombinant biotin-FLAG-tagged human ATM (Q13315 whole entry): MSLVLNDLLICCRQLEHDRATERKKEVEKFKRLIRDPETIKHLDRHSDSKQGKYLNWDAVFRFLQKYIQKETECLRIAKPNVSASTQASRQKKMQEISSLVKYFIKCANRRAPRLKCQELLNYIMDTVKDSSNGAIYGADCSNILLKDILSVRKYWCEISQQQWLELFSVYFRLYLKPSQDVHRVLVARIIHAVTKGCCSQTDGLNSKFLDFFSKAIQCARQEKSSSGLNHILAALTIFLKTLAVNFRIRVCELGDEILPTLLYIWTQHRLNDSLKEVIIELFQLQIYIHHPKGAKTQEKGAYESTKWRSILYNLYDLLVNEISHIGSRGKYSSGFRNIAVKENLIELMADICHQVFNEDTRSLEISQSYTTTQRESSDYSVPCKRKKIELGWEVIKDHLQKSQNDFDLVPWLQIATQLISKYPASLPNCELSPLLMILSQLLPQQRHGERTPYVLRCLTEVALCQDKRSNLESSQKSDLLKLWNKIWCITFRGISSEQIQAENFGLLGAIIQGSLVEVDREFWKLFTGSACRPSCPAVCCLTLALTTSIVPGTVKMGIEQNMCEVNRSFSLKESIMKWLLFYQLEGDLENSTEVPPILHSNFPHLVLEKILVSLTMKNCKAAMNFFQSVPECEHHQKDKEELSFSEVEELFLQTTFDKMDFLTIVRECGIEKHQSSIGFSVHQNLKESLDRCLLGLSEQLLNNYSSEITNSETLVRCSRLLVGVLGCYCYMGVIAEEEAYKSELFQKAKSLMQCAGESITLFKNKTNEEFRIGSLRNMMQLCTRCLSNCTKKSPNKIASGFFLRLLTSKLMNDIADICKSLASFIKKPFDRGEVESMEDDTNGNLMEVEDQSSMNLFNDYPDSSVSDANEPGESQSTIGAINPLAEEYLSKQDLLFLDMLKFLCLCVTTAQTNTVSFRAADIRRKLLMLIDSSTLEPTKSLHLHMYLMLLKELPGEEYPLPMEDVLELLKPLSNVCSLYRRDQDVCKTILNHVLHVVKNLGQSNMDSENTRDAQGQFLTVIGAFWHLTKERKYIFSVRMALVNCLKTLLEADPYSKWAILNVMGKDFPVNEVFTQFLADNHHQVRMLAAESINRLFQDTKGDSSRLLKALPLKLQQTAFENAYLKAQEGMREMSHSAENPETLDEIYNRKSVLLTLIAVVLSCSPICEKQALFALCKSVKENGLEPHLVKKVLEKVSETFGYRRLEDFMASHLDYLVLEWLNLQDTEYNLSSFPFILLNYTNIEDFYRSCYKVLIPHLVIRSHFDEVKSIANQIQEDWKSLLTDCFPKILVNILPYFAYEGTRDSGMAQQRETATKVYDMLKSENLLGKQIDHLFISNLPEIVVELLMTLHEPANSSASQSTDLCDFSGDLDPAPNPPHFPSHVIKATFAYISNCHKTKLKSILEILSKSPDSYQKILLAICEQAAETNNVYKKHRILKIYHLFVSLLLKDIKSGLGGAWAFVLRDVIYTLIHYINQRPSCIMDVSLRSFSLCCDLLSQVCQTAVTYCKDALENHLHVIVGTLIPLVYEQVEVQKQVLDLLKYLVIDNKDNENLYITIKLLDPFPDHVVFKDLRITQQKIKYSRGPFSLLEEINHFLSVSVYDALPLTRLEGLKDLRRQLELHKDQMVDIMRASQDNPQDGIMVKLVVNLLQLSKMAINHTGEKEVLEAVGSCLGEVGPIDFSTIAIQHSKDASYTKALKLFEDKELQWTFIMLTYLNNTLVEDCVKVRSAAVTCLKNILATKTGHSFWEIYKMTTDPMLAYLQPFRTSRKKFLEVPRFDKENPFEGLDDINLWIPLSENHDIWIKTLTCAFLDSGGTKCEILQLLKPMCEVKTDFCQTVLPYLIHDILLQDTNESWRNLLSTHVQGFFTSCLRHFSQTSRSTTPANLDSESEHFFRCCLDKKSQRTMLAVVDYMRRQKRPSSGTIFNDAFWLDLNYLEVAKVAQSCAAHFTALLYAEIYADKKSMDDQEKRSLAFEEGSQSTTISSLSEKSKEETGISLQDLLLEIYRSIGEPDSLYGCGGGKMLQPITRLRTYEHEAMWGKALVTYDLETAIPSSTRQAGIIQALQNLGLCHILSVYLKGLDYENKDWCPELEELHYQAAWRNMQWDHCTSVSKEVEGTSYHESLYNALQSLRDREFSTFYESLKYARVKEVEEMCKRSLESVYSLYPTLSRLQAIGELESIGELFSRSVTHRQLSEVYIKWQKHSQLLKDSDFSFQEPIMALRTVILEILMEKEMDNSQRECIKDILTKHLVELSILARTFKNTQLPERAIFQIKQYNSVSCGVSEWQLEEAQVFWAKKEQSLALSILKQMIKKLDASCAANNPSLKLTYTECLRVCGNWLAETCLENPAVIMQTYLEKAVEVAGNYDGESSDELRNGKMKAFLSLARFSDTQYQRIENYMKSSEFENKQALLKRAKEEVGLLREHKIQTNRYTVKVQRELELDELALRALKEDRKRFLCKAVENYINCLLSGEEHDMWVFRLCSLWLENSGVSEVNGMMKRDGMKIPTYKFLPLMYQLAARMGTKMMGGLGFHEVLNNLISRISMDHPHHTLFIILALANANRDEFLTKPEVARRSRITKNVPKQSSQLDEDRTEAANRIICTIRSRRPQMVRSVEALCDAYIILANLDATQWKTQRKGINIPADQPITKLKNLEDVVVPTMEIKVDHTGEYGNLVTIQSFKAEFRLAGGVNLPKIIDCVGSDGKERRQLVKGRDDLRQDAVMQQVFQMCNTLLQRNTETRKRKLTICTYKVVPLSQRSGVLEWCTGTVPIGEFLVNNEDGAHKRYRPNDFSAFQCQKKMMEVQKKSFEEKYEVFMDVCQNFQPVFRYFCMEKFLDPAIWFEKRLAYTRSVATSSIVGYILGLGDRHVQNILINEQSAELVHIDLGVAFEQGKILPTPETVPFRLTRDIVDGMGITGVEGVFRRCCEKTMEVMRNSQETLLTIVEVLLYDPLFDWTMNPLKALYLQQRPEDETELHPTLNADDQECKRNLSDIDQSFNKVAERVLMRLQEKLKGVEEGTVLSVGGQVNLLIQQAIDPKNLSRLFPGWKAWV

binding result: binds
B1: MBP-tagged human MRI (natural protein, UniProt Q9BWK5 1-157, looked up)
chain: METLQSETKTRVLPSWLTAQVATKNVAPMKAPKRMRMAAVPVAAARLPATRTVYCMNEAEIVDVALGILIESRKQEKACEQPALAGADNPEHSPPCSVSPHTSSGSSSEEEDSGKQALAPGLSPSQRPGGSSSACSRSPEEEEEEDVLKYVREIFFS
